Data as given in paper PMC2928128.

Biological target: GST-CDH23Δexon68ΔITEL (residues 847-1075)
Test: SPR

B1: harmonin-a Nter-PDZ1 fragment (residues 1-203) (domain or fragment)
chain: MDRKVAREFRHKVDFLIENDAEKDYLYDVLRMYHQTMDVAVLVGDLKLVINEPNRLPLFDAIRPLIPLKHQVEYDQLTPRRSRKLKEVRLDRLHPEGLGLSVRGGLEFGCGLFISHLIKGGQADSVGLQVGDEIVRINGYSISSCTHEEVINLIRTKKTVSIKVRHIGLIPVKSSPEESLKWQYVDQFVSESGGVRGGLGSPG
  Kd: 58 nM

B2: harmonin-a Nter domain (residues 1-79) (domain or fragment)
chain: MDRKVAREFRHKVDFLIENDAEKDYLYDVLRMYHQTMDVAVLVGDLKLVINEPNRLPLFDAIRPLIPLKHQVEYDQLTP
  Kd: > 5000 nM
